Patent publication US20240084023A1 (NGM BIOPHARMACEUTICALS, published 2024)
Where a chain is given by its changes, count along the chain named.

How the values were obtained:
Experiment in all cases: flow cytometry on transfected 293XP cells
[1] = target: T1, GCGR extracellular domain alanine mutant W83A (human, UniProt P47871 26-136, limits assumed)
T1 construct: expressed in 293XP cells
T1 chain: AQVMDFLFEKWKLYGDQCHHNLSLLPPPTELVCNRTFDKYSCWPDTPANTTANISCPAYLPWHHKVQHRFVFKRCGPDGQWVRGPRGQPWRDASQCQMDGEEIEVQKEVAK
Method: (§1) To assist in gathering information on the GCGR epitope that the 6B5 binning group bound to, “alanine scanning mutagenesis” was undertaken. These alanine scanning mutagenesis platform is a technique used for mapping both linear and conformational antigen epitopes by evaluating the effects of point mutations across a target protein. Single residues in a target protein are replaced by alanine one at a time to construct a mutant library. Each variant is assayed for its ability to bind to an antibody of interest. […] Amino acids across the extracellular domain of GCGR were mutated to alanine and the anti-GCGR antibody Hz6B5 was tested for binding to the alanine mutants.
(§2) The wild-type GCGR extracellular domain and the alanine mutants were each transfected into 293XP cells and incubated for 24 hours. Antibody Hz6B5 was incubated with the transfected cells for 30 minutes at 4° C. After washing with PBS/1% BSA/0.1% azide, the cells were incubated with a labeled anti-mouse Fc antibody (Jackson Immunoresearch) for 30 minutes at 4° C. After washing with PBS/1% BSA/0.1% azide, the cells were analyzed using a flow cytometer BD (FACSCalibur instrument) and cytometric analytical software (FlowJo). A serum sample from a mouse immunized with human GCGR was used as positive control to confirm expression of the alanine mutants.

[2] = target: T2, GCGR extracellular domain alanine mutant L32A (human, UniProt P47871 26-136, limits assumed)
T2 construct: expressed in 293XP cells
T2 chain: T1 chain with L7A, A58W
Method: as §1, §2

[3] = target: T3, GCGR extracellular domain alanine mutant L38A (human, UniProt P47871 26-136, limits assumed)
T3 construct: expressed in 293XP cells
T3 chain: T1 chain with L13A, A58W
Method: as §1, §2

[4] = target: T4, GCGR extracellular domain alanine mutant W106A (human, UniProt P47871 26-136, limits assumed)
T4 construct: expressed in 293XP cells
T4 chain: T1 chain with A58W, W81A
Method: as §1, §2

[5] = target: T5, GCGR extracellular domain alanine mutant R116A (human, UniProt P47871 26-136, limits assumed)
T5 construct: expressed in 293XP cells
T5 chain: T1 chain with A58W, R91A
Method: as §1, §2

[6] = target: T6, GCGR extracellular domain alanine mutant R111A (human, UniProt P47871 26-136, limits assumed)
T6 construct: expressed in 293XP cells
T6 chain: T1 chain with A58W, R86A
Method: as §1, §2

[7] = target: T7, GCGR extracellular domain alanine mutant T75A (human, UniProt P47871 26-136, limits assumed)
T7 construct: expressed in 293XP cells
T7 chain: T1 chain with T50A, A58W
Method: as §1, §2

[8] = target: T8, GCGR extracellular domain alanine mutant H45A (human, UniProt P47871 26-136, limits assumed)
T8 construct: expressed in 293XP cells
T8 chain: T1 chain with H20A, A58W
Method: as §1, §2

[9] = target: T9, wild-type GCGR extracellular domain expressed in 293XP cells (human, UniProt P47871 26-136, limits assumed)
T9 construct: transfected into 293XP cells; also called WT GCGR
Method: as §1, §2

[10] = target: T10, GCGR extracellular domain alanine mutant F31A (human, UniProt P47871 26-136, limits assumed)
T10 construct: expressed in 293XP cells
T10 chain: T1 chain with F6A, A58W
Method: as §1, §2

[11] = target: T11, GCGR extracellular domain alanine mutant R108A (human, UniProt P47871 26-136, limits assumed)
T11 construct: expressed in 293XP cells
T11 chain: T1 chain with A58W, R83A
Method: as §1, §2

[12] = target: T12, GCGR extracellular domain alanine mutant Y39A (human, UniProt P47871 26-136, limits assumed)
T12 construct: expressed in 293XP cells
T12 chain: T1 chain with Y14A, A58W
Method: as §1, §2

[13] = target: T13, GCGR extracellular domain alanine mutant D41A (human, UniProt P47871 26-136, limits assumed)
T13 construct: expressed in 293XP cells
T13 chain: T1 chain with D16A, A58W
Method: as §1, §2

- % positive cells [1]: 72.6%
- % positive cells [2]: 76.9%
- % positive cells [3]: 3.3%
- % positive cells [4]: 60.8%
- % positive cells [5]: 85.9%
- % positive cells [6]: 84.5%
- % positive cells [7]: 84.9%
- % positive cells [8]: 81.3%
- % positive cells [9]: 87.8%
- % positive cells [10]: 85.1%
- % positive cells [11]: 87%
- % positive cells [12]: 65.8%
- % positive cells [13]: 84.3%
B1: anti-GCGR antibody Hz6B5 (antibody, V domains shown)
VH: QVQLVQSGAEVKKPGSSVKVSCKASGFTFTNHWLGWVRQAPGQGLEWIGDIYPGGYYINYNEKFKGRVTITADESTSTAYMELSSLRSEDTAVYYCARHTNYGSDYWGQGTTVTVSS
VL: DVVMTQSPLSLPVTLGQPASISCRSSQSIVDSYGNTFLEWYQQRPGQSPRLLIYKVSNRLSGVPDRFSGSGSGTDFTLKISRVEAEDVGVYYCFQGSHVPWTFGQGTKLEIK
notes: Humanized 6B5
